Experimental data taken from patent US20190134153A1, “IMMUNOMODULATORY EFFECT OF INHALED KINASE INHIBITOR PEPTIDES IN LUNG” (MOERAE MATRIX, INC., priority 2017, published 2019).

Assays:
Assay in all cases: Kinase Profiling Assay
Format in all cases: biochemical
Conditions in all cases: 100 μM
[1] = molecular target: Lck(h) (Homo sapiens, UniProt P06239)
[2] = molecular target: CK1γ3(h) (Homo sapiens, UniProt Q9Y6M4)
[3] = molecular target: CK1γ2(h) (Homo sapiens, UniProt P78368)
[4] = molecular target: HIPK3(h) (Homo sapiens, UniProt Q9H422)
HIPK3(h), sequence (Q9H422 whole entry): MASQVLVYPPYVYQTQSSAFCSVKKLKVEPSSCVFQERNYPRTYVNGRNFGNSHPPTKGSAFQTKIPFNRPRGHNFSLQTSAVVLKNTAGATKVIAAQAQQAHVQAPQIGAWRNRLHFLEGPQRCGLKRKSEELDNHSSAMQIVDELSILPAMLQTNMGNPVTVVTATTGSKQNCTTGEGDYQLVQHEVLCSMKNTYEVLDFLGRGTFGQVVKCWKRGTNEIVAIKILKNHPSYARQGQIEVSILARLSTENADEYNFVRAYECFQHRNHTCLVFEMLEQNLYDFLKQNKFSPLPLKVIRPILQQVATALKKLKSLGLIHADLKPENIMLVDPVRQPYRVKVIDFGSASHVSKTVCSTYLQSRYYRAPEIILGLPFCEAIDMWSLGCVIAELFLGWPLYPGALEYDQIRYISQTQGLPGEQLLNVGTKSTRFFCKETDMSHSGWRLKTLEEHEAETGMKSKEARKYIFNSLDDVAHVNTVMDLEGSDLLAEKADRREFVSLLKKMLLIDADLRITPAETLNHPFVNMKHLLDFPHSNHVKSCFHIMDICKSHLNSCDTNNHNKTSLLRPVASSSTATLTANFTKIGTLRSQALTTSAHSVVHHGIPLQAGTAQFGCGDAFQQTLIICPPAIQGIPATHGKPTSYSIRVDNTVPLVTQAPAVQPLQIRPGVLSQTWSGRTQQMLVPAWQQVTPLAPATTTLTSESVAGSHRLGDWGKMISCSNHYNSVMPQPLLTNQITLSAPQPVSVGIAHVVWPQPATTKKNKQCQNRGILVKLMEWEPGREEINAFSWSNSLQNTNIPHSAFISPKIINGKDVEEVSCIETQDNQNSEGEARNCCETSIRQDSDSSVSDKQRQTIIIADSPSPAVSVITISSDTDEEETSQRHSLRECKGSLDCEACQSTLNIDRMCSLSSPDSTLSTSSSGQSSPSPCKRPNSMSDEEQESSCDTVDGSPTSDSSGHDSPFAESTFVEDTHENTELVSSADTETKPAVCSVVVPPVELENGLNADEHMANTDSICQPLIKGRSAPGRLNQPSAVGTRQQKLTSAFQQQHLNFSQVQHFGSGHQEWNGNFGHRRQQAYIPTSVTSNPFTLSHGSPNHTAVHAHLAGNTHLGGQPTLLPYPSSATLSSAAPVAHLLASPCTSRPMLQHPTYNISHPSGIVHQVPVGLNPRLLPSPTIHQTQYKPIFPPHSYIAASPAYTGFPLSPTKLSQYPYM

[5] = molecular target: EGFR(T790M)(h) (Homo sapiens, UniProt P00533, T790M)
[6] = molecular target: PAK3(h) (Homo sapiens, UniProt O75914)
PAK3(h), sequence (O75914 whole entry): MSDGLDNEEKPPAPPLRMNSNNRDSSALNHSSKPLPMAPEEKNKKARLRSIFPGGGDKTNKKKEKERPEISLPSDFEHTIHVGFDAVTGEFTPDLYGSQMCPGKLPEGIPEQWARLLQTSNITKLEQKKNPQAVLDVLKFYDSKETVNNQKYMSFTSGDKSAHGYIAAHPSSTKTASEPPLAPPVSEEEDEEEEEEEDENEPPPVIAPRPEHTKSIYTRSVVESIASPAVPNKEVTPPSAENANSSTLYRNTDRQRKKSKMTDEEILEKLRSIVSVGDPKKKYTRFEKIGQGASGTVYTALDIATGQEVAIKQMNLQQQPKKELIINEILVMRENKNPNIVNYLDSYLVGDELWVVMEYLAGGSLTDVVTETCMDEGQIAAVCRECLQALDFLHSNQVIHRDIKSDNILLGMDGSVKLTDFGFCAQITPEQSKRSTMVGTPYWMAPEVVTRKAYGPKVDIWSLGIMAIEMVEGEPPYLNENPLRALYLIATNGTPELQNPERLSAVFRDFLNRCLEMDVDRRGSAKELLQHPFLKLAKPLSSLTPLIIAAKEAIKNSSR

[7] = molecular target: Snk(h) (Homo sapiens, UniProt Q9NYY3)
Snk(h), sequence (Q9NYY3 whole entry): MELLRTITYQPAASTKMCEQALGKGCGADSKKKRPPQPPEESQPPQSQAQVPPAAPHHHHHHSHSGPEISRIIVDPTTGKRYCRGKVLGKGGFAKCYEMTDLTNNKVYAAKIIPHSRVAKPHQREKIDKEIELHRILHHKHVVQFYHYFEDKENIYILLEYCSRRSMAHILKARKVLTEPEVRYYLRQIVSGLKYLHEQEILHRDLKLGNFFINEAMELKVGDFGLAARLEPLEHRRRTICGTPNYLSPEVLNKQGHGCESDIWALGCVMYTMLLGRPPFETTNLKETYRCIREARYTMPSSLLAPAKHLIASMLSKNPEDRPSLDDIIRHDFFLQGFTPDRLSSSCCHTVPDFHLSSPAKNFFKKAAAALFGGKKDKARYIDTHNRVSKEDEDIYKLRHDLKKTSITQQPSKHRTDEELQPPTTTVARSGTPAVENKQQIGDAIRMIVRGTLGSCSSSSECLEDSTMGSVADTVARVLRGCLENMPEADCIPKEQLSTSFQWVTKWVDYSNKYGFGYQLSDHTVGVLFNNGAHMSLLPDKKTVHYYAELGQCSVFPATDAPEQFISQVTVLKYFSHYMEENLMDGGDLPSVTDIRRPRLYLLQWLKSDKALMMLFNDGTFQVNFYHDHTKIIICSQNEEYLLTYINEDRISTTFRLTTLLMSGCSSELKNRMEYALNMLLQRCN

[8] = molecular target: T1, JAK3(h) (Homo sapiens, UniProt P52333)
T1 sequence (P52333 1-1124): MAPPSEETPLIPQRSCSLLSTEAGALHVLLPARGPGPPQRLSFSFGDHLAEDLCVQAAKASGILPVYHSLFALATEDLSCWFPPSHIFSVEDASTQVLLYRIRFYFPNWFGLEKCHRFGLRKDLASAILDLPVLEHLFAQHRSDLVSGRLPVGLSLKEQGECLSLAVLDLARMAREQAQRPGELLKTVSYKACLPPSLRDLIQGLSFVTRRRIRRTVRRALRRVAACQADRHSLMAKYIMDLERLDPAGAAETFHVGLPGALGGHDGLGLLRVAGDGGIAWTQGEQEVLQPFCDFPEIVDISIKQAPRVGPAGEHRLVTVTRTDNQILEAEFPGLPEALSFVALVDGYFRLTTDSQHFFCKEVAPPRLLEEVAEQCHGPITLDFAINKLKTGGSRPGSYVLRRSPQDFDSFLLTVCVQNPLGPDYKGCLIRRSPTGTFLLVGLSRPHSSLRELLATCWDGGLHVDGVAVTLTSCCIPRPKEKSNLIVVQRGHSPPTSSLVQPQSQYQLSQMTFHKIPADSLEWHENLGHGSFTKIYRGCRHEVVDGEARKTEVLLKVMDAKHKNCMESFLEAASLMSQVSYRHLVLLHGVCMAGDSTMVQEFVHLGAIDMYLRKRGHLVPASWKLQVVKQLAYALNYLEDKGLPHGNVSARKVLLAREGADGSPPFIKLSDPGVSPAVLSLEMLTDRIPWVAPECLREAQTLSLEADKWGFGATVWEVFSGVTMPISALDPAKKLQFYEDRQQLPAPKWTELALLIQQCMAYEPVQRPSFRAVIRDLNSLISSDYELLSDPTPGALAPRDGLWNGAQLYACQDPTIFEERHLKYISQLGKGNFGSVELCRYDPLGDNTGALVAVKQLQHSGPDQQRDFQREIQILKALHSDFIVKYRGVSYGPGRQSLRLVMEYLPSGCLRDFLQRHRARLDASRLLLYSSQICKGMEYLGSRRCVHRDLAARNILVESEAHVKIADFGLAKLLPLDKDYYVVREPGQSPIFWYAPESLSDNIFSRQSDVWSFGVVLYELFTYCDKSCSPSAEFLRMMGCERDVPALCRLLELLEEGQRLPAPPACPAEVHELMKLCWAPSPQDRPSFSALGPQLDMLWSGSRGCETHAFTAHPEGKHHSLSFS

[9] = molecular target: MRCKα(h) (Homo sapiens, UniProt Q5VT25)
[10] = molecular target: c-RAF(h) (Homo sapiens, UniProt P04049)
[11] = molecular target: PAK6(h) (Homo sapiens, UniProt Q9NQU5)
[12] = molecular target: CK2α2(h) (Homo sapiens, UniProt P19784)
CK2α2(h), sequence (P19784 whole entry): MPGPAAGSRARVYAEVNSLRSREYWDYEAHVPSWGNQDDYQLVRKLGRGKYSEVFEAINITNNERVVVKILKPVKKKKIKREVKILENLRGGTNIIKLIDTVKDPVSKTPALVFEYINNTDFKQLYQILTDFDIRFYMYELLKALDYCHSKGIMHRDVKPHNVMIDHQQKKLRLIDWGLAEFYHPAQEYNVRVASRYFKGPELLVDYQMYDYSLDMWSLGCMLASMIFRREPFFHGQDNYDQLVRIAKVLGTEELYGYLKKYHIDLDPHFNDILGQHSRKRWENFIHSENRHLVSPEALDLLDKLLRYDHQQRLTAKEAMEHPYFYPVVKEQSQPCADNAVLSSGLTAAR

[13] = molecular target: IGF-1R(h) (Homo sapiens, UniProt P08069)
[14] = molecular target: GRK5(h) (Homo sapiens, UniProt P34947)
GRK5(h), sequence (P34947 whole entry): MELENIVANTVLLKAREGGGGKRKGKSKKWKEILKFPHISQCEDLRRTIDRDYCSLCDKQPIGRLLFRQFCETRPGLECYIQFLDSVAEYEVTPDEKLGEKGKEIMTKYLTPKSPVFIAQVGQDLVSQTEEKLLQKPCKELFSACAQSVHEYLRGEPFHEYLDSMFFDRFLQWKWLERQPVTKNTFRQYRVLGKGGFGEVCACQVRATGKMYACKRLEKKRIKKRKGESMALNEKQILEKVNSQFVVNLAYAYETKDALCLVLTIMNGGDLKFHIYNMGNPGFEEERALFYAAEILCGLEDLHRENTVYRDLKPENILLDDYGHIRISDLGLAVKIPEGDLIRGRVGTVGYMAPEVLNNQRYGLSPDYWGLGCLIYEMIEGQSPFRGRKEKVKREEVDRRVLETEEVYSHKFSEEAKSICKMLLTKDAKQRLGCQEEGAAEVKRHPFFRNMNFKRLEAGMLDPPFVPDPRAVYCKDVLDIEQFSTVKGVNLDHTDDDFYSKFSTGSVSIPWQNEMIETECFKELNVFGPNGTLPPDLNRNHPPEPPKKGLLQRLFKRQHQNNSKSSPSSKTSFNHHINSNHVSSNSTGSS

[15] = molecular target: CLK2(h) (Homo sapiens, UniProt P49760)
[16] = molecular target: Plk1(h) (Homo sapiens, UniProt P53350)
[17] = molecular target: CK1γ1(h) (Homo sapiens, UniProt Q9HCP0)
CK1γ1(h), sequence (Q9HCP0 whole entry): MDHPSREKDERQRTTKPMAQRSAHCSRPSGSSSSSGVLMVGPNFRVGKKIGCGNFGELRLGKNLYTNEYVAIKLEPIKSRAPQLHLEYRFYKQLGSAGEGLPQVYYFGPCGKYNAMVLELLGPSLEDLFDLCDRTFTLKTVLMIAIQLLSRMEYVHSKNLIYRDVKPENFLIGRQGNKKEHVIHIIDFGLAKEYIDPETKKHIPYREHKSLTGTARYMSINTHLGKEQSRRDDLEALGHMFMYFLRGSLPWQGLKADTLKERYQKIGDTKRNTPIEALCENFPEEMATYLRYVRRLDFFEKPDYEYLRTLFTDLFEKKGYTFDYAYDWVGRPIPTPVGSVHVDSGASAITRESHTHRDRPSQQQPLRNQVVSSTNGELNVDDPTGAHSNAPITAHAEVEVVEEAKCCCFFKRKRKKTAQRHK

CK1γ3(h), sequence (Q9Y6M4 whole entry): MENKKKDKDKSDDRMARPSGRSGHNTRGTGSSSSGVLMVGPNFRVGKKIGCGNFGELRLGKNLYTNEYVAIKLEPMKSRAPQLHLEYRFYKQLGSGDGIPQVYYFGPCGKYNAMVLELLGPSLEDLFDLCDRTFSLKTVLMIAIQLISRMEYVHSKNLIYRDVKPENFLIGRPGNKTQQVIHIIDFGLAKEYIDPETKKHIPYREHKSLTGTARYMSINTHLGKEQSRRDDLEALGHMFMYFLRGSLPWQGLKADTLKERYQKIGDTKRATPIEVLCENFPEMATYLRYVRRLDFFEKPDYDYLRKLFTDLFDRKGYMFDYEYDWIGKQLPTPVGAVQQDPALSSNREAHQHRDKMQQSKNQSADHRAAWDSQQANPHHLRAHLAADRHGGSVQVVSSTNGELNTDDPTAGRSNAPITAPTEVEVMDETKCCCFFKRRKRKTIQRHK
Lck(h), sequence (P06239 whole entry): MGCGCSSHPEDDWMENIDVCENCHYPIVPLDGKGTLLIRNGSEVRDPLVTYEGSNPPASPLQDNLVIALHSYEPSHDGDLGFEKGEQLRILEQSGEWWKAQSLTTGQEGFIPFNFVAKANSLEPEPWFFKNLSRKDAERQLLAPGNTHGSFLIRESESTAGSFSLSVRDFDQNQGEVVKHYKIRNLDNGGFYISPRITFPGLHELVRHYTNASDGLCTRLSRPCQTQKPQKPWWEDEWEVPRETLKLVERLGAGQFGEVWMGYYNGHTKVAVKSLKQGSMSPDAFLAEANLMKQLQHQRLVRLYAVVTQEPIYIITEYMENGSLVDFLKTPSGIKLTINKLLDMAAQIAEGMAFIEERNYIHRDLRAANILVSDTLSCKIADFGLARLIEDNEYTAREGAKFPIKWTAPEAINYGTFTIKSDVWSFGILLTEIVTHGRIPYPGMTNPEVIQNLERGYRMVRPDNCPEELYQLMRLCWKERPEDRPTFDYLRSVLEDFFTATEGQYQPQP

Sequence	% activity [1] [%]	% activity [2] [%]	% activity [3] [%]	% activity [4] [%]	% activity [5] [%]	% activity [6] [%]	% activity [7] [%]	% activity [8] [%]	% activity [9] [%]	% activity [10] [%]	% activity [11] [%]	% activity [12] [%]	% activity [13] [%]	% activity [14] [%]	% activity [15] [%]	% activity [16] [%]	% activity [17] [%]
FAKLAARLYRKALARQLGVAA [MMI-0300]	−2	125	123	93	100	140											
HRRIKAWLKKIKALARQLGVAA [MMI-0500]	359			85	70		122	95	5	19							
KAFAKLAARLYRKALARQLGVAA [MMI-0400]							131	122	97		100	96	90	131			
YARAAARQARAKALNRQLGVA [MMI-0200]		96				50						88	49	135	97	128	98
